Laboratory results taken from US20220025010A1 (ANTAG THERAPEUTICS, published 2022).
*1 amine or outer side, *2 acyl side, *3 side chain or, on linkers, in order; H or OH if unused. Where no end group is shown, it is not given here. Side-chain parts run from the residue outwards. The star is where a group is joined. C18 diacid = O=C(O)CCCCCCCCCCCCCCCCC(=O)*; C16 diacid = O=C(O)CCCCCCCCCCCCCCC(=O)*; γGlu = O=C(O)[C@H](CCC(=O)[*:2])N[*:1]; AEEA = NCCOCCOCC(=O)O

T1: human GIP receptor (human, UniProt P48546 22-466)
T1 sequence (looked up): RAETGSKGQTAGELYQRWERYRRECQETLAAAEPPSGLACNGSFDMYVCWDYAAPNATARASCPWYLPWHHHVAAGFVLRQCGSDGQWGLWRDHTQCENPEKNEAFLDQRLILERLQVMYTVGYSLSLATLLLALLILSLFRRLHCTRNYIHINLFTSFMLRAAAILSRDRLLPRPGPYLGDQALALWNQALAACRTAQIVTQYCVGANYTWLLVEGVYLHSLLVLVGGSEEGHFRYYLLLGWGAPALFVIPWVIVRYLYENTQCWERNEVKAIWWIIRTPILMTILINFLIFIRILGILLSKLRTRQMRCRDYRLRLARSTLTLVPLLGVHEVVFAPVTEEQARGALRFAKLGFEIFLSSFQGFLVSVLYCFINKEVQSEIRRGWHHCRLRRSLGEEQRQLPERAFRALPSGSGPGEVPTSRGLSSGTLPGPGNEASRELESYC

B1: AT354 (peptide)
peptide: ISDYSIAMDKIK(C16 diacid)QQDFVNWLLAQK-NH2
modifications: N-terminus assumed
SMILES: CC[C@H](C)[C@H](N)C(=O)N[C@@H](CO)C(=O)N[C@@H](CC(=O)O)C(=O)N[C@@H](Cc1ccc(O)cc1)C(=O)N[C@@H](CO)C(=O)N[C@H](C(=O)N[C@@H](C)C(=O)N[C@@H](CCSC)C(=O)N[C@@H](CC(=O)O)C(=O)N[C@@H](CCCCN)C(=O)N[C@H](C(=O)N[C@@H](CCCCNC(=O)CCCCCCCCCCCCCCC(=O)O)C(=O)N[C@@H](CCC(N)=O)C(=O)N[C@@H](CCC(N)=O)C(=O)N[C@@H](CC(=O)O)C(=O)N[C@@H](Cc1ccccc1)C(=O)N[C@H](C(=O)N[C@@H](CC(N)=O)C(=O)N[C@@H](Cc1c[nH]c2ccccc12)C(=O)N[C@@H](CC(C)C)C(=O)N[C@@H](CC(C)C)C(=O)N[C@@H](C)C(=O)N[C@@H](CCC(N)=O)C(=O)N[C@@H](CCCCN)C(N)=O)C(C)C)[C@@H](C)CC)[C@@H](C)CC
B2: AT355 (peptide)
peptide: SDYSIAMDKIK(C16 diacid)QQDFVNWLLAQK-NH2
modifications: N-terminus assumed
SMILES: CC[C@H](C)[C@H](NC(=O)[C@H](CO)NC(=O)[C@H](Cc1ccc(O)cc1)NC(=O)[C@H](CC(=O)O)NC(=O)[C@@H](N)CO)C(=O)N[C@@H](C)C(=O)N[C@@H](CCSC)C(=O)N[C@@H](CC(=O)O)C(=O)N[C@@H](CCCCN)C(=O)N[C@H](C(=O)N[C@@H](CCCCNC(=O)CCCCCCCCCCCCCCC(=O)O)C(=O)N[C@@H](CCC(N)=O)C(=O)N[C@@H](CCC(N)=O)C(=O)N[C@@H](CC(=O)O)C(=O)N[C@@H](Cc1ccccc1)C(=O)N[C@H](C(=O)N[C@@H](CC(N)=O)C(=O)N[C@@H](Cc1c[nH]c2ccccc12)C(=O)N[C@@H](CC(C)C)C(=O)N[C@@H](CC(C)C)C(=O)N[C@@H](C)C(=O)N[C@@H](CCC(N)=O)C(=O)N[C@@H](CCCCN)C(N)=O)C(C)C)[C@@H](C)CC
B3: AT383 (peptide)
peptide: SGTFISDYSIAMDRIK([AEEA-AEEA-AEEA-γGlu-C16 diacid])QQDFVNWLLAQR-NH2
modifications: N-terminus assumed
SMILES: CC[C@H](C)[C@H](NC(=O)[C@H](CO)NC(=O)[C@H](Cc1ccc(O)cc1)NC(=O)[C@H](CC(=O)O)NC(=O)[C@H](CO)NC(=O)[C@@H](NC(=O)[C@H](Cc1ccccc1)NC(=O)[C@@H](NC(=O)CNC(=O)[C@@H](N)CO)[C@@H](C)O)[C@@H](C)CC)C(=O)N[C@@H](C)C(=O)N[C@@H](CCSC)C(=O)N[C@@H](CC(=O)O)C(=O)N[C@@H](CCCNC(=N)N)C(=O)N[C@H](C(=O)N[C@@H](CCCCNC(=O)COCCOCCNC(=O)COCCOCCNC(=O)COCCOCCNC(=O)CC[C@H](NC(=O)CCCCCCCCCCCCCCC(=O)O)C(=O)O)C(=O)N[C@@H](CCC(N)=O)C(=O)N[C@@H](CCC(N)=O)C(=O)N[C@@H](CC(=O)O)C(=O)N[C@@H](Cc1ccccc1)C(=O)N[C@H](C(=O)N[C@@H](CC(N)=O)C(=O)N[C@@H](Cc1c[nH]c2ccccc12)C(=O)N[C@@H](CC(C)C)C(=O)N[C@@H](CC(C)C)C(=O)N[C@@H](C)C(=O)N[C@@H](CCC(N)=O)C(=O)N[C@@H](CCCNC(=N)N)C(N)=O)C(C)C)[C@@H](C)CC
B4: AT384 (peptide)
peptide: SGTFISDYSIAMDRIK([AEEA-AEEA-γGlu-C18 diacid])QQDFVNWLLAQR-NH2
modifications: N-terminus assumed
SMILES: CC[C@H](C)[C@H](NC(=O)[C@H](CO)NC(=O)[C@H](Cc1ccc(O)cc1)NC(=O)[C@H](CC(=O)O)NC(=O)[C@H](CO)NC(=O)[C@@H](NC(=O)[C@H](Cc1ccccc1)NC(=O)[C@@H](NC(=O)CNC(=O)[C@@H](N)CO)[C@@H](C)O)[C@@H](C)CC)C(=O)N[C@@H](C)C(=O)N[C@@H](CCSC)C(=O)N[C@@H](CC(=O)O)C(=O)N[C@@H](CCCNC(=N)N)C(=O)N[C@H](C(=O)N[C@@H](CCCCNC(=O)COCCOCCNC(=O)COCCOCCNC(=O)CC[C@H](NC(=O)CCCCCCCCCCCCCCCCC(=O)O)C(=O)O)C(=O)N[C@@H](CCC(N)=O)C(=O)N[C@@H](CCC(N)=O)C(=O)N[C@@H](CC(=O)O)C(=O)N[C@@H](Cc1ccccc1)C(=O)N[C@H](C(=O)N[C@@H](CC(N)=O)C(=O)N[C@@H](Cc1c[nH]c2ccccc12)C(=O)N[C@@H](CC(C)C)C(=O)N[C@@H](CC(C)C)C(=O)N[C@@H](C)C(=O)N[C@@H](CCC(N)=O)C(=O)N[C@@H](CCCNC(=N)N)C(N)=O)C(C)C)[C@@H](C)CC
B5: AT385 (peptide)
peptide: SGTFISDYSIAMDRIK([AEEA-AEEA-AEEA-γGlu-C18 diacid])QQDFVNWLLAQR-NH2
modifications: N-terminus assumed
SMILES: CC[C@H](C)[C@H](NC(=O)[C@H](CO)NC(=O)[C@H](Cc1ccc(O)cc1)NC(=O)[C@H](CC(=O)O)NC(=O)[C@H](CO)NC(=O)[C@@H](NC(=O)[C@H](Cc1ccccc1)NC(=O)[C@@H](NC(=O)CNC(=O)[C@@H](N)CO)[C@@H](C)O)[C@@H](C)CC)C(=O)N[C@@H](C)C(=O)N[C@@H](CCSC)C(=O)N[C@@H](CC(=O)O)C(=O)N[C@@H](CCCNC(=N)N)C(=O)N[C@H](C(=O)N[C@@H](CCCCNC(=O)COCCOCCNC(=O)COCCOCCNC(=O)COCCOCCNC(=O)CC[C@H](NC(=O)CCCCCCCCCCCCCCCCC(=O)O)C(=O)O)C(=O)N[C@@H](CCC(N)=O)C(=O)N[C@@H](CCC(N)=O)C(=O)N[C@@H](CC(=O)O)C(=O)N[C@@H](Cc1ccccc1)C(=O)N[C@H](C(=O)N[C@@H](CC(N)=O)C(=O)N[C@@H](Cc1c[nH]c2ccccc12)C(=O)N[C@@H](CC(C)C)C(=O)N[C@@H](CC(C)C)C(=O)N[C@@H](C)C(=O)N[C@@H](CCC(N)=O)C(=O)N[C@@H](CCCNC(=N)N)C(N)=O)C(C)C)[C@@H](C)CC
B6: AT393 (peptide)
peptide: SGTFISDYSIAMDRIK(C18 diacid)QQDFVNWLLAQR-NH2
modifications: N-terminus assumed
SMILES: CC[C@H](C)[C@H](NC(=O)[C@H](CO)NC(=O)[C@H](Cc1ccc(O)cc1)NC(=O)[C@H](CC(=O)O)NC(=O)[C@H](CO)NC(=O)[C@@H](NC(=O)[C@H](Cc1ccccc1)NC(=O)[C@@H](NC(=O)CNC(=O)[C@@H](N)CO)[C@@H](C)O)[C@@H](C)CC)C(=O)N[C@@H](C)C(=O)N[C@@H](CCSC)C(=O)N[C@@H](CC(=O)O)C(=O)N[C@@H](CCCNC(=N)N)C(=O)N[C@H](C(=O)N[C@@H](CCCCNC(=O)CCCCCCCCCCCCCCCCC(=O)O)C(=O)N[C@@H](CCC(N)=O)C(=O)N[C@@H](CCC(N)=O)C(=O)N[C@@H](CC(=O)O)C(=O)N[C@@H](Cc1ccccc1)C(=O)N[C@H](C(=O)N[C@@H](CC(N)=O)C(=O)N[C@@H](Cc1c[nH]c2ccccc12)C(=O)N[C@@H](CC(C)C)C(=O)N[C@@H](CC(C)C)C(=O)N[C@@H](C)C(=O)N[C@@H](CCC(N)=O)C(=O)N[C@@H](CCCNC(=N)N)C(N)=O)C(C)C)[C@@H](C)CC

biological target: T1, human GIP receptor; experiment: cell-based or functional assay

| Binder | cAMP antagonism % inhib [%] | cAMP antagonism IC50 [nM] | cAMP antagonism log IC50 [log M] |
| --- | --- | --- | --- |
| B1 | 100 | 10 | -8 |
| B2 | 100 | 53 | -7.3 |

biological target: T1, human GIP receptor; experiment: cell-based or functional assay; remark: another data set of the same source

| Binder | CisBio cAMP agonism % Efficacy [%] | CisBio cAMP antagonism % inhib [%] | CisBio cAMP antagonism IC50 [nM] | CisBio cAMP antagonism pIC50 | DiscoveRx cAMP antagonism % inhib [%] | DiscoveRx cAMP antagonism IC50 [nM] | DiscoveRx cAMP antagonism log IC50 [log M] |
| --- | --- | --- | --- | --- | --- | --- | --- |
| B3 | 0 | 89 | 12.6 | 7.9 | 100 | 1 | -8.9 |
| B4 | 0 | 97 | 54.1 | 7.3 | 100 | 8 | -8.1 |
| B5 | 3 | 70 | 43 | 7.4 | 100 | 4 | -8.4 |
| B6 | 6 | 78 | 33.5 | 7.5 | 100 | 1 | -8.9 |
| B1 | 0 | 91 | 108 | 7 |  |  |  |
| B2 | 0 | 65 | 233 | 6.6 |  |  |  |

biological target: T1, human GIP receptor; experiment: cell-based or functional assay; remark: another data set of the same source

| Binder | CisBio cAMP antagonism % inhib [%] | CisBio cAMP antagonism IC50 [nM] | cAMP antagonism % inhib [%] | cAMP antagonism IC50 [nM] |
| --- | --- | --- | --- | --- |
| B3 | 89 | 12.6 | 100 | 1 |
| B4 | 97 | 54.1 | 100 | 8 |
| B5 | 70 | 43 | 100 | 4 |
| B6 | 78 | 33.5 | 100 | 1 |
